# Measurements from PMC12464775, “Selective and Potent Peptide Binders of RNF43 for Wnt Signaling Inhibition” (ACS Central Science, 2025).
# T1: extracellular domain (ECD) of the human RNF43 protein, biotinylated, Q68DV7
# T1 chain: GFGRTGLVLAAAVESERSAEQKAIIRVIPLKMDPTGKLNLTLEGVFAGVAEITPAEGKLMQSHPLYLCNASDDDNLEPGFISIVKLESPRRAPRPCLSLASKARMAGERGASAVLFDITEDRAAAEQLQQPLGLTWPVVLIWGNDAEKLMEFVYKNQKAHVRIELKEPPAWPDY
# Biological target: T1, extracellular domain (ECD) of the human …
# Test: SPR
# Settings: chain shown with the change;; parent: 1.1 ± 0.07 nM
binder,measurement,value
EQCTSTQDLCHDASHVCCWPLDCRWAVKYQWFWDCIG [GUR-1.6.12.2 Y13A],Kd,36 nM
